Data reported in patent US20250011431A1 (ADIVO, published 2025).
Changes are numbered by the printed parent chain.

Tests used:
[1] = target: T1, biotinylated cPD-L1_hFc (Sino Biological Cat. 70110-D02H-B) (canine; human, biotinylated (sites not given)); assay: Fab-capture ELISA: Fab on anti-canine Fab capture antibody, cPD-L1_hFc-Biotin titrated
T1 construct: also called cPD-L1-biotin; cPD-L1_hFc-Biotin; not shown: human Fc tag (hFc)
T1 chain: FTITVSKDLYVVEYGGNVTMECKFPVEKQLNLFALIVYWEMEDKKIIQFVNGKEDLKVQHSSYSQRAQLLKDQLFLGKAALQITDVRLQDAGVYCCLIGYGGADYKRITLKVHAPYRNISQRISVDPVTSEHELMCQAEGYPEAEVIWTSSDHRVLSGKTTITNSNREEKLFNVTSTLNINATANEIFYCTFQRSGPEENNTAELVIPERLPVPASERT
Protocol: The screening was performed as described in Example 4. Fab binders of CAN1005016 and CAN1005019 were loaded onto plate-bound anti-canine Fab capture antibody, followed by addition of titration series of cPD-L1_hFc-Biotin. Detection was performed with Streptavidin-HRP. The parental clone CAN1005001 was included as a control. Curve fits and EC50 values were analyzed with GraphPad Prism.

[2] = target: T1, biotinylated cPD-L1_hFc (Sino …); assay: Fab-capture ELISA: Fab from lysate on anti-canine Fab antibody, cPD-L1-biotin titrated
Protocol: To identify derivatives with a higher affinity, an alternative ELISA setup was used for screening to better normalize BEL expression levels and differentiate Fabs more efficiently with respect to their affinity. In contrast to the previous screening ELISA setup, a Maxisorp plate was coated over night with an anti-canine Fab antibody in a low density of 1 μg/ml. Coated plates were washed 3× with PBS-T, followed by loading with diluted BELs. After the BEL incubation and washing with PBS-T, dilution series of cPD-L1-biotin was added to the plate. Detection was performed with Streptavidin-HRP, followed by more stringent 5× washing with PBS-T and Quanta Blue substrate addition. Measurement was performed as described before (Example 1).

PD-L1-his [3] = target: T2, PD-L1-his (canine); assay: grating-coupled interferometry (waveRAPID): antibody captured on PAG chip, PD-L1-his as analyte, 1:1 fit, 25 C
T2 construct: also called monovalent PD-L1 antigen; not shown: his tag
T2 chain: T1 chain
Protocol: (§1) To further characterize the kinetic properties of our candidates CAN1005016 and CAN1005019, the KD of our candidates was quantified using waveRAPID in a GCI system according to the procedure described below. The binding kinetics study was performed on the Creoptix® WAVEdelta system using a PAG sensor chip (Creoptix, a Malvern Panalytical brand). All experiments were performed with HBS-EP (Cytiva) as running buffer, at a temperature of 25° C. and sampling rate of 10 Hz. Data acquisition and evaluation were performed using WAVEcontrol software version 4.5.13.
(§2) Prior to ligand capturing, the sensor chip was conditioned by a 180 sec injection of 100 mM sodium borate, 1 M NaCl, pH 9 (Xantec). Antibody was diluted to 1 μg/ml in HBS-EP and captured to a density of =300 pg/mm2 on flow channel 2. Flow channel 1 was left blank to serve as a reference surface. For collection of kinetic data, PD-L1-his was diluted to 200 nM in HBS-EP and injected over ligand and reference surfaces in repeated analyte pulses of increasing duration (waveRAPID) at flowrate of 60 μl/min. PD-L1-his was injected for a total duration of 180 sec, followed by measuring complex-dissociation in running buffer for 30 min. Blank injections were performed to enable double referencing of the data and a 0.5% DMSO pulse injection (running buffer with 0.5% DMSO) was used as an analyte concentration modulation calibration curve. Data were corrected (X and Y offset, DMSO calibration, double referencing) and fitted with a simple 1:1 interaction model (global fit) to obtain kinetic parameters.

[4] = target: T3, cPD-L1_hFc (canine PD-L1 Fc-fusion protein; Sino Biological Cat. 70110-D02H) (canine; human); assay: binding ELISA, IgG titrated on plate-bound cPD-L1_hFc
T3 construct: Bought product; also called canine PD-L1_hFc; cPD-L1 fusion protein; not shown: human Fc tag (hFc)
T3 chain: T1 chain
Protocol: cPD-L1 fusion proteins were directly immobilized on the plate, commonly in a concentration of 57 nM. For binding ELISA, black 384 well Maxisorp plates were used. This was performed overnight at 4° C. The coated plates were washed 3× with PBS-T, followed by blocking with Chemiblocker (Merck-Millipore; 2170) for 1 h at RT. After blocking, dilution series of the respective antibodies were added to the plate usually covering concentrations ranging from the single digit ng/ml to the single-digit ug/ml range. Antibodies were also incubated for 1 h at RT, followed by washing and by addition of suitable detection antibodies coupled to HRP. Measurement was carried out as described above for the Screening ELISA.

canine PD-L1 on cells = target: T4, canine PD-L1 on cells (canine); assay: flow cytometry on HEK293c18 cells transfected with canine PD-L1
T4 construct: also called wildtype canine PD-L1 on transfected HEK293c18 cells
T4 chain: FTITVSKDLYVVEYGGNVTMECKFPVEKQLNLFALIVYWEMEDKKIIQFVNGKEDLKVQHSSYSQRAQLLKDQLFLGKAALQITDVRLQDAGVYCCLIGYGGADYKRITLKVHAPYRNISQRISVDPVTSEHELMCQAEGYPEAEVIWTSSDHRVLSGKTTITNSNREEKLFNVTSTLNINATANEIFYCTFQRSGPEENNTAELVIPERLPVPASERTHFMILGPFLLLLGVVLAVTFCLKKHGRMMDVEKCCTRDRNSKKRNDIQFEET
Protocol: HEK293c18 cells were seeded in 6 well plates at a density of 1×10⁶ cells/well in DMEM+10% FCS. The next day, the transfection mix was prepared. […] Per well, 2 μg of the plasmid encoding for wildtype canine PD-L1 was diluted in 200 μl jetPRIME buffer. The solution was mixed and 4 μl of the transfection reagent was added, followed by mixing and centrifuging of the mixture. Then, the medium of the adherent cells is replaced by fresh medium and the transfection mix is carefully added onto the cells. The plate containing the transfected cells is placed back in the incubator and incubated for 24 h.
The cells were washed once by addition of 200 μl per well PBS/EDTA and centrifugation at 1500 rpm for 5 min. The supernatant was carefully decanted by holding the plate upside down above a waste and dried on a paper towel. Then, the cells were stained for dead cells with the dye Zombie violet (Biolegend; Cat.: 423114) diluted 1:500 in PBS/EDTA for 15 minutes at 4° C. in the dark. Subsequently, cells were washed with FACS Buffer (PBS/EDTA+2% FCS) as described above. Titration series of CAN1005016 and CAN1005019 usually ranging from 10 ng/ml to 10 μg/ml were prepared diluted in FACS buffer and added to the respective wells for a 30-minute incubation at 4° C. in the dark. […] Finally, the cells were washed again 3× and then resuspended in 200 μl FACS buffer and measured directly.

[5] = target: T3, cPD-L1_hFc (canine PD-L1 Fc-fusion …); assay: ELISA ligand-binding inhibition, cPD-L1_hFc on the plate, competitor PD-1-Biotin (206 nM)
Protocol: cPD-L1 fusion proteins were directly immobilized on the plate overnight at 4° C., commonly in a concentration of 57 nM. For […] ELISA, black 384 well Maxisorp plates were used. The coated plates were washed 3× with PBS-T, followed by blocking with Chemiblocker (Merck-Millipore; 2170) for 1 h at RT. The blocked plates were washed 3× with PBS-T, followed by addition of titration-series of blocking antibodies and incubation for 1 h at RT. Subsequently plates were washed again 3× with PBS-T and PD-1-Biotin (1× biotinylated via Avi-tag; Sinobiological Cat.: 70109-D27H-B) was added and incubated for 1 h at RT, usually in a concentration of 4 μg/ml (206 nM). This concentration of canine PD-1-Biotin was previously identified as optimal by titrating the binding of PD-1-Biotin towards immobilized canine PD-L1_hFc. After incubation with the ligand PD-1, the plate was washed 3× with PBS-T and suitable detection reagent for the biotinylated PD-1, usually Streptavidin-HRP, was added and incubated for 1 h at RT. Subsequently, the plate was washed 5×, followed by addition of Quanta Blue and measurement as described above for the screening ELISA.

PD-L1-his [6] = target: T2, PD-L1-his; assay: grating-coupled interferometry, KD compared with that of CAN1005010H2
Protocol: as §1
as §2, with “Data were corrected (X and Y offset, DMSO calibration, double referencing) and fitted with a simple 1:1 interaction model (global fit) to obtain kinetic parameters.” left out

[7] = target: T3, cPD-L1_hFc (canine PD-L1 Fc-fusion …); assay: binding ELISA, cPD-L1 fusion protein on the plate

B1: CAN1005016 Fab (Fab, V domains shown)
VH: EVQLVESGGDLVKPGGTLRLSCVASGFTFSSYDMSWVRQSPGKGLQWVAVIWNTGSHAYYADAVKGRFTISRDNAKNTLYLQMNSLRAEDTAVYYCARGRQPRLVGTLDLWGQGTLVTVSS
VL: SYVLTQLPSVSVTLRQTARITCGGDSIGSKNVYWYQQKLGQAPVLIIYDDSSRPSGIPERFSGANSGNTATLTISGALAEDEADYYCQTYDSLVDVGVFGGGTQLTVL
EC50 [1]: 0.087 nM

B2: CAN1005010H2 Fab (Fab, V domains shown)
VH: B1 VH
VL: B1 VL with Q88S, V94L
notes: Fab from bacterial lysate
EC50 [2]: 0.121 nM

B3: CAN1005010L1 Fab (Fab, V domains shown)
VH: B1 VH with T54E, H57S, A58T
VL: B1 VL
notes: Fab from bacterial lysate
EC50 [2]: 0.139 nM

B4: CAN1005001L1 Fab (Fab, V domains shown)
VH: EVQLVESGGDLVKPAGSLRLSCVASGFTFSSYSMSWVRQAPEKGLQLVAGISSGGSSTYYTDAVKGRFTISRDNAKNTVYLQMNSLRAEDTAMYYCARGQGGRSSFDYWGQGTLVTVSS
VL: B1 VL with T89S, S92I, L93P, V94L, D95T, V96G, G97T
notes: Fab from bacterial lysate
EC50 [2]: 0.362 nM

B5: CAN1005001 Fab (Fab, V domains shown)
VH: B4 VH
VL: B1 VL with T89S, D91A, S92M, L93P, V94L, D95T, V96G, G97T
notes: also called parental clone CAN1005001
EC50 [2]: 0.82 nM

B6: CAN1005001H3 Fab (Fab, V domains shown)
VH: B4 VH with G50W, S52D, S53A, G54Y, G55A, S56G, S57V, Y59S, T61A, D62N
VL: B1 VL with T89S, D91A, S92M, L93P, V94L, D95T, V96G, G97T
notes: Fab from bacterial lysate
EC50 [2]: 0.097 nM

B7: CAN1005019 Fab (Fab, V domains shown)
VH: B4 VH with G50W, S52D, S53A, G54Y, G55A, S56G, S57V, Y59S, T61A, D62N
VL: B1 VL with T89S, S92I, L93P, V94L, D95T, V96G, G97T
EC50 [1]: 0.138 nM

B8: CAN1005016 IgG (antibody, V domains shown)
VH: B1 VH
VL: SYVLTQLPSVSVTLRQTARITCGGDSIGSKNVYWYQQKLGQAPVLIIYDDSSRPSGIPERFSGANSGNTATLTISGALAEDEADYYCQTYDSLVDVGVFGGGTQLTVLG
notes: also called biotinylated CAN1005016
Kd (PD-L1-his [3]): 0.77 nM
EC50 [4]: 0.076 nM
EC50 (canine PD-L1 on cells): 10.5 nM
IC50 [5]: 0.95 nM
fold improvement in affinity against CAN1005010H2 (PD-L1-his [6]): > 3 fold

B9: CAN1005019 IgG (antibody, V domains shown)
VH: B4 VH with G50W, S52D, S53A, G54Y, G55A, S56G, S57V, Y59S, T61A, D62N
VL: B8 VL with T89S, S92I, L93P, V94L, D95T, V96G, G97T
notes: also called biotinylated CAN1005019
Kd (PD-L1-his [3]): 1.7 nM
EC50 [4]: 0.049 nM
EC50 (canine PD-L1 on cells): 11.8 nM
IC50 [5]: 1.32 nM

B10: CAN1005010H2 (as captured in the GCI measurement of anti-PD-L1 IgGs) (antibody, V domains shown)
VH: B1 VH
VL: B1 VL with Q88S, V94L
notes: also called parental clone CAN1005010H2
Kd (PD-L1-his [3]): 2.8 nM

B11: CAN1005001 IgG (antibody, V domains shown)
VH: B4 VH
VL: B1 VL with T89S, D91A, S92M, L93P, V94L, D95T, V96G, G97T
notes: also called initial clone CAN1005001; parental clone CAN1005001
EC50 [7]: 0.4 nM
IC50 [5]: 4.6 nM
